Patent US20210340232A1, “MONOCLONAL ANTIBODIES AGAINST HUMAN DICKKOPF3 AND USES THEREOF” (Board of Regents, The University of Texas System, priority 2018, published 2021)

How the values were obtained:
[1] = system: BxPC3 + HPSC orthotopic tumors; experiment: Orthotopic co-injection BxPC3 + HPSC nude mouse model of PDAC; format: in vivo; conditions: 5 mg/kg i.p. once every 5 days, vs PBS or control mAb
Method: HPSCs and BxPC3 cells were treated with DKK3 mAb clones JM6-6-1 and JM8-12-1 or isotype control mAb or PBS. (FIGS. 5A-B) HPSC apoptosis and migration as measured by FACS and Transwell migration assay at 48 hours. (FIG. 5C) BxPC3 migration in response to rhDKK3 10 μg/ml as measured by Transwell migration assay at 48 hours. (FIG. 5D) BxPC3 resistance to gemcitabine 100 μM as measured by MTS proliferation assay at 6 days. HPSC-CM, pancreatic stellate cell conditioned media, 10 μg/ml. The orthotopic co-injection BxPC3+ HPSC model of PDAC was used to test the efficacy of DKK3 mAb clones JM6-6-1 or JM8-12-1 (5 mg/kg i.p. once every 5 days). (FIG. 5E) Overall tumor progression was measured every 3-4 days by IVIS imaging. (FIG. 5F) Metastatic tumors in the peritoneal cavity after removal of the primary pancreatic tumor are shown by IVIS imaging. (FIG. 5G) Kaplan Meier survival curve showing mice treated with DKK3 mAb clone JM8-12 (right-most line), control mAb (middle line), or PBS (left-most line). (FIG. 5H) KPC mice (P48-Cre; Kras LSL-G12D;Trp53fl/fl) with either wild type DKK3 (solid lines) or deficient in DKK3 (“DKK3-KO,” dashed lines) were treated with DKK3 mAb JM6-6-1 (5 mg/kg i.p. once every 5 days), PBS or control mAb. Kaplan Meier survival curve is shown with hazard ratios (Log-rank test). *p<0.05, **p<0.01, ***p<0.001, ****p<0.0001 vs. control Ab.
An orthotopic nude mouse model of PDAC using BxPC3 cancer cells labeled with firefly luciferase (BxPC3-FL) co-injected with HPSCs has been previously described (Hwang et al., 2008). Mice received intrapancreatic injections of BxPC3-FL (1×10^6 per mouse) with HPSC-shControl or HPSC-shDKK3 in a tumor-to-stroma ratio of 1:0 or 1:3 in 50-μL of HBSS and tumor growth was monitored using IVIS imaging (Hwang et al., 2008). In addition, a syngeneic immunocompetent DKK3 null model was used, provided by Dr. C. Niehrs (Barrantes Idel et al., 2006), that was injected with murine PDAC cells (termed “KPC cells”) isolated from tumors arising in a GEMM of PDAC (Pdx1-Cre; Kras^LSL-G12D;Trp53^R172H/+) (Hingorani et al., 2005; Hingorani et al., 2003) and labeled with luciferase.
The efficacy of DKK3 mAb was tested in vivo using the previously described orthotopic co-implantation nude mouse model of PDAC with human PSCs mixed with luciferase-labeled BxPC3 cancer cells (1:3 tumor:PSC ratio). Mice were treated with either phosphate-buffered saline (PBS), isotype control mAb, or DKK3 mAb (clone JM6-6-1; 5 mg/kg i.p. once every 5 days) and tumor growth was followed with IVIS imaging. […] Tumors in the PBS and control mAb groups grew rapidly from day 22 onward, with an 8-fold increase in the luciferase signal.

[2] = system: MPSCs; experiment: Proliferation of mouse PSCs by MTS assay at 7 days; format: cell-based
Method: (§1) FIGS. 12A-D. DKK3 expression in mouse PSCs and effects of treatment with DKKC mAb on survival. (FIG. 12A) Western blot analysis of recombinant human and mouse DKK3 under denaturing and non-denaturing conditions using JM6-6-1 mAb. (FIG. 12B) Expression of murine DKK3 in murine PSCs (MPSC) or 3T3 cells was determined by RT-PCR. 18S was used as loading control. (FIG. 12C) Proliferation of MPSCs treated with DKK3 mAb was measured at 7 days by MTS assay. ***p<0.001 vs. PBS. (FIG. 12D) Pdx1-Cre; Kras LSL-G12D;Trp53fl/+ model of PDAC was treated with DKK3 mAb JM6-6-1 or control mAb JM4-74 (5 mg/kg i.p. q5d). Kaplan-Meier survival curves are shown (log rank test). At 0% survival, the right line is JM6-6-1, the middle lines is PBS, and the left line is Control Ab.
Cell-based assays. Cell proliferation was measured by the MTS assay (Promega, Madison, Wis.). Cell migration and invasion studies with stimulation by recombinant human DKK3 (R&D, Minneapolis, Minn.) were performed using 6.5-mm Transwell® with 8.0-μm pore membrane Insert (Corning Incorporated) and BioCoat Matrigel-coated invasion chambers (BD Biosciences, Bedford, Mass.).

[3] = system: Pdx1-Cre GEMM model of PDAC; experiment: Survival in Pdx1-Cre GEMM model of PDAC; format: in vivo, mouse; conditions: 5 mg/kg i.p. q5d
Method: as §1
Two GEMMs of PDAC that differ in the pancreas-specific promoter to target oncogenic Kras expression (Hingorani et al., 2005; Hingorani et al., 2003) were used in the experiments to evaluate the effect of DKK3 neutralizing mAb (Pdx1-Cre; Kras^LSL-G12D; Trp53^R172H/+ and P48-Cre; Kras^LSL-G12D; Trp53^fl/fl). To evaluate the effects of genetic ablation of DKK3 on pancreatic cancer development, DKK3-null mice were crossed to P48-Cre; Kras^LSL-G12D;Trp53^R172H or P48-Cre; Kras^LSL-G12D; Trp53^fl/fl mice (Hingorani et al., 2005; Hingorani et al., 2003), and the progeny were monitored until they were moribund. […]

B1: JM6-6-1: monoclonal antibody against human DKK3; heavy chain variable SEQ ID NO: 19, light chain variable SEQ ID NO: 20 (antibody, V domains shown)
VH: EVKLVESGGGLVKPGGSLKLSCAASGFTFTIEYMAWIRQTPEKRLEWVASISSGGDDIYYADNVKGRFTISRDNAKNTLYLQMSSLKSEDTAIYYCSRSLSDWGQGTTLTVSSAKTTPPSDYPLA
VL: MTQTPLSLPVSLGDQASISCRSSQSILHSNGHTYLEWYLQKPGQSPKLLIYKVSNRFSGVPDRFSGSGSGTDFTLKISRVEAEDLGVYYCFQGSHVPFTFGSGTKLEIERADAAQ
In the case of B1, the “tumor growth by IVIS imaging” value ([1]; day 22 until day 33) is reported as “significant inhibition in tumor growth”, the “lower volume of metastatic disease in peritoneal cavity by luciferase signal” value [1] is reported as 6.5 fold and the “proliferation of mouse PSCs” value [2] is reported as “inhibited proliferation”. For the same molecule, the effect on survival [3] was “equally effective”.
